Results from patent CN108290942A.

B1: 抗信号素3A scFv抗体片段 A08 (scFv, part only; not given: linker and tags, not shown: large carriers)
scFv, part: EVQLLESGGGLVQPGGSLRLSCAASGFTFSDYAMSWVRQAPGKGLEWVSGIYYDDSSQYYADSVKGRFTISRDNSKNTLYLQMNSLRAEDTAVYYCAKNLGRFDYWGQGTLVTVSSQSVLTQPPSASGTPGQRVTISCTGSSSNIGSNAVTWYQQLPGTAPKLLIYDDNHRPSGVPDRFSGSKSGTSASLAISGLRSEDEADYYCGAWDDSLSAYVFGGGTKLTVL
B2: 抗信号素3A scFv抗体片段 C10 (scFv, part only; not given: linker and tags, not shown: large carriers)
scFv, part: EVQLLESGGGLVQPGGSLRLSCAASGFTFSDYAMSWVRQAPGKGLEWVSGIYYDDSSQYYADSVEGRFTISRDNSKNTLYLQMNSLRAEDTAVYYCARYLGLFDYWGQGTLVTVSSQSVLTQPPSASGTPGQRVTISCSGSSSNIGNNSVNWYQQLPGTAPKLLIYSDSQRPSGVPDRFSGSKSGTSASLAISGLRSEDEADYYCGSWDYSLSAYVFGGGTKLTVL
B3: 抗信号素3A scFv抗体片段 F11 (scFv, part only; not given: linker and tags, not shown: large carriers)
scFv, part: EVQLLESGGGLVQTGGSLRLSCAASGFTFSDYAMSWVRQAPGKGLEWVSWIYYDSGSKYYADSVKGRFTISRDNSKNTLYLQMNSLRAEDTAVYYCAKLNGDFDYWGQGTLVTVSSQSVLTQPPSASGTPGQRVTISCSGSSSNIGNNDVSWYQQLPGTAPKLLIYADSHRPSGVPDRFSGSKSGTSASLAISGLRSEDEADYYCGAWDSSLSGYVFGGGTKLTVL

These binders were tested against T1, 细胞实际分泌的信号素3A (UniProt Q14563) (assay: cell-based or functional assay).
T1 sequence (looked up): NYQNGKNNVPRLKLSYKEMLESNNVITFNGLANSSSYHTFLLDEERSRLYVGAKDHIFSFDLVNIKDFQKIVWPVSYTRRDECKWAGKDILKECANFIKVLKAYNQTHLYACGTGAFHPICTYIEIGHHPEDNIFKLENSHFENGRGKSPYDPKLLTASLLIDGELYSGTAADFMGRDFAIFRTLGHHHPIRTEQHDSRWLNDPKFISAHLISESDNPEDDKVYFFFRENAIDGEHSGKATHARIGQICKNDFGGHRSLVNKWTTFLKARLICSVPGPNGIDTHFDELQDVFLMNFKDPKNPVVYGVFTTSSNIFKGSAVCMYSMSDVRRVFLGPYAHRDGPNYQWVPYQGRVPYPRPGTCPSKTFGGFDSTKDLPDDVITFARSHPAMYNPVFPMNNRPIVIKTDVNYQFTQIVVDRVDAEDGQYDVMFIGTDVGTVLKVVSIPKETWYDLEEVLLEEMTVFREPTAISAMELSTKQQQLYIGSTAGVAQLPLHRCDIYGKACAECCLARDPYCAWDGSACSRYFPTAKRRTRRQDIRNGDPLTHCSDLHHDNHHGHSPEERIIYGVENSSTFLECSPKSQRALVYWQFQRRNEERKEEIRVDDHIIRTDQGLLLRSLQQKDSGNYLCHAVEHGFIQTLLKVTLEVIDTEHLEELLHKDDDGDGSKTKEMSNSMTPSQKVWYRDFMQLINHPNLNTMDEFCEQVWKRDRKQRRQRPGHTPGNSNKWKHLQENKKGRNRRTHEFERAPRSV
Work on B1 yielded a 细胞生长速度 (EZ-Cytox, 131细胞, 50μg/ml scFv, 4天) of 70%, a 细胞迁移 (transwell, 83细胞) of 21% and a 细胞迁移 (transwell, 131细胞) of 11%. For the same binder, the 细胞迁移 (transwell, U87-MG细胞, 50μg/ml scFv) was 78%. B2 was tested, and the 细胞生长速度 (EZ-Cytox, 131细胞, 50μg/ml scFv, 4天) was 70%, the 细胞迁移 (transwell, 83细胞) was 44% and the 细胞迁移 (transwell, 131细胞) was 19%. It also gave a 细胞迁移 (transwell, U87-MG细胞, 50μg/ml scFv) of 70%. In the case of B3, the 细胞生长速度 (EZ-Cytox, 131细胞, 50μg/ml scFv, 4天) is reported as 70%, the 细胞迁移 (transwell, 83细胞) is reported as 28% and the 细胞迁移 (transwell, 131细胞) is reported as 7%. The 细胞迁移 (transwell, U87-MG细胞, 50μg/ml scFv) was 74%.
